US20240053349A1
Square brackets hold non-standard residues; d marks the D form. Primed or numbered codes have the meaning given here. Side chains are listed from the residue outwards. Ends that are not written are not given here. * marks the point of attachment. DOTA = O=C(O)CN1CCN(CC(=O)O)CCN(CC(=O)*)CCN(CC(=O)O)CC1; Biotin = O=C1N[C@H]2[C@H](CS[C@H]2CCCCC(=O)*)N1; Butanoyl(4-(4-I-phenyl)) = O=C(CCCc1ccc(I)cc1)*; Butanoyl(4-(4-MePh)) = Cc1ccc(CCCC(=O)*)cc1; FB = fluorobenzaldehyde oxime; Folate = pteroic acid on Glu; PEG3′ = PEG3 spacer; PEG7′ = PEG7 spacer; AO = aminooxy

B1: Folate-hshta-PEG3-Lys(MPBA)-Lys(DOTA) (compound #2809) (peptide)
peptide: [dH][dS][dH][dT][dA][PEG3′]K(Butanoyl(4-(4-MePh)))K(DOTA)-OH
modifications: triazole (positions not given here); not fully specified (N-terminus); printed as folate-hshta-PEG3-Lys(MPBA)-Lys(DOTA); numbers in words are those of the source; also: triazole macrocycle via Pra and Az4, places not given here
B2: Fol-hshta-PEG3-Lys(DOTA) (compound #1189) (peptide)
peptide: folate-[dH][dS][dH][dT][dA][PEG3′]K(DOTA)-OH
modifications: triazole (positions not given here); not fully specified; printed as folate-hshta-PEG3-Lys(DOTA); numbers in words are those of the source; also: triazole macrocycle via Pra and Az4, places not given here
B3: Folate-hshta-Lys(IPBA)-M-V-Lys(DOTA) (compound #1306) (peptide)
peptide: folate-[dH][dS][dH][dT][dA]K(Butanoyl(4-(4-I-phenyl)))MVK(DOTA)-OH
modifications: triazole (positions not given here); not fully specified; also: triazole macrocycle via Pra and Az4, places not given here
B4: Folate-hshta-G-F-K(DOTA)-OH (Indi 7327, compound #7327) (peptide)
peptide: Folate-[dH][dS][dH][dT][dA]GFK(DOTA)-OH
modifications: not fully specified (bridges); printed as folate-hshta-Gly-Phe-Lys(DOTA); also: triazole macrocycle closed by Pra and Lys(N3)/Az4 flanking hshta, not in the given chain
B5: Fol-hshta-Lys(4-MPBA)-Gly-Phe-Lys(PEG3-DOTA) (compound #3302) (peptide)
peptide: [dH][dS][dH][dT][dA]KGFK([PEG3′-DOTA])
modifications: triazole (positions not given here); not fully specified (residue 6, N-terminus); also: triazole macrocycle via Pra and Az4, places not given here
B6: Fol-hshta-PEG3-Gly-Phe-Lys(DOTA) (compound #6307) (peptide)
peptide: folate-[dH][dS][dH][dT][dA][PEG3′]GFK(DOTA)
modifications: triazole (positions not given here); numbers in words are those of the source; also: triazole macrocycle via Pra and Az4, places not given here
B7: Fol-hshta-PEG3-Lys(FB) (compound #2) (peptide)
peptide: folate-[dH][dS][dH][dT][dA][PEG3′]K([AO-FB])
modifications: triazole (positions not given here); numbers in words are those of the source; also: triazole macrocycle via Pra and Az4, places not given here
B8: Folate-hshta-Lys(IPBA)-Gly-Phe-Lys(DOTA) (compound #1307) (peptide)
peptide: [dH][dS][dH][dT][dA]K(Butanoyl(4-(4-I-phenyl)))GFK(DOTA)
modifications: triazole (positions not given here); not fully specified (N-terminus); also: triazole macrocycle via Pra and Az4, places not given here
B9: Folate-hshta-Lys(MPBA)-Gly-Phe-Lys(DOTA) (compound #6305) (peptide)
peptide: [dH][dS][dH][dT][dA]K(Butanoyl(4-(4-MePh)))GFK(DOTA)-OH
modifications: triazole (positions not given here); not fully specified (N-terminus); also: triazole macrocycle via Pra and Az4, places not given here
B10: deryt (SEQ ID NO:20) PCC alone (peptide)
peptide: [dD][dE][dR][dY][dT]
modifications: triazole (positions not given here); also: flanked by Pra and Az4 joined by 1,2,3-triazole, sides not given here
B11: folate-kyeet Tz heterobiligand (peptide)
peptide: Biotin-[dK][dY][dE][dE][dT]
modifications: triazole (positions not given here); also: folate joined via PEG linker and triazole (Tz), site not placed, triazole macrocycle via Pra and Az4 flanking kyeet, not placed in chain
B12: folate-hshta Tz heterobiligand (peptide)
peptide: Biotin-[dH][dS][dH][dT][dA]
modifications: triazole (positions not given here); also: triazole macrocycle via Pra and Az4, places not given here, folate joined through PEG linker and triazole, site not given here
B13: Folate-deryt heterobiligand (construct not specified) (peptide)
peptide: [dD][dE][dR][dY][dT]
modifications: triazole (positions not given here); also: triazole macrocycle via Pra and Az4, places not given here, folate conjugated, linker and site not given here
B14: Folate-PEG7-hshta (peptide)
peptide: {folate-PEG7′}-[dH][dS][dH][dT][dA]
modifications: triazole (positions not given here); also: triazole macrocycle via Pra and Az4, places not given here, biotin label, site not given here
B15: Fol-hshta-Gly-Phe-Lys(AO) (compound #3303) (peptide)
peptide: folate-[dH][dS][dH][dT][dA]GFK(AO)
modifications: triazole (positions not given here); not fully specified; printed as Fol-hshta-Gly-Phe-Lys(AO); also: triazole macrocycle via Pra and Az4, places not given here

These binders were tested against human plasma proteins (assay: plasma protein binding, dialysis 4 h at 37 C, 2 µM, LC-MS/MS).
With B1 the Plasma % Bound was 83.3%. Work on B2 yielded a Plasma % Bound of 46%. In the case of B3, the Plasma % Bound is reported as 97.3%. B4 was tested, and the Plasma % Bound was 40.3%. For B5, the Plasma % Bound was 94.9%. B6 was tested, and the Plasma % Bound was 41.3%. Binder B7 has a Plasma % Bound of 43%. Work on B8 yielded a Plasma % Bound of 99.5%. B9 showed a Plasma % Bound of 98.3%.

What follows are binders tested against mouse plasma proteins (CD-1 mouse) in the same assay as above.
In the case of B1, the Plasma % Bound is reported as 92.1%. B2 showed a Plasma % Bound of 29.5%. B3 gave a Plasma % Bound of 97.1%. For B4, the Plasma % Bound was 40.9%. With B5 the Plasma % Bound was 96.5%. Binder B6 has a Plasma % Bound of 40.6%. With B7 the Plasma % Bound was 20.2%. In the case of B8, the Plasma % Bound is reported as 99.6%. Work on B9 yielded a Plasma % Bound of 96.3%.

These binders were tested against FOLR1 human recombinant protein (human) (UniProt P15328) (assay: ELISA on FOLR1).
FOLR1 human recombinant protein (human), sequence (P15328 25-233 limits assumed): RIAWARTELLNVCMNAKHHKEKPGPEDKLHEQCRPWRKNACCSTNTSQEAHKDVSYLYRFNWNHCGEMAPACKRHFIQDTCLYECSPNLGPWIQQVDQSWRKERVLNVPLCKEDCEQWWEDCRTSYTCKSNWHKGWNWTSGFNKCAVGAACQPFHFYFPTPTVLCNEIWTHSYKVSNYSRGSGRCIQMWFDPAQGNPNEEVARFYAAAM
With B10 the EC50 was 10000 nM. Work on B11 yielded an EC50 of 0.149 nM. With B12 the EC50 was 0.107 nM.

These binders were tested against FOLR1 human recombinant protein (human) (UniProt P15328) (assay: ELISA on FOLR1, linker screen).
With B13 the EC50 was 0.28 nM. Work on B14 yielded an EC50 of 1 nM.

What follows are binders tested against human plasma proteins (assay: plasma protein binding; measured on the FB form).
In the case of B15, the Plasma % Bound is reported as 81%. B7 gave a Plasma % Bound of 43%.

Each binder was assayed against mouse plasma proteins (CD-1 mouse) (assay: plasma protein binding; measured on the FB form).
B15 showed a Plasma % Bound of 75.5%. In the case of B7, the Plasma % Bound is reported as 20.2%.
